In IntAct's records for PubMed 29039417:

B1: Protein PTHB1 (Homo sapiens), Q3SYG4 (parent)
chain: MSLFKARDWWSTILGDKEEFDQGCLCLANVDNSGNGQDKIIVGSFMGYLRIFSPHPAKTGDGAQAEDLLLEVDLRDPVLQVEVGKFVSGTEMLHLAVLHSRKLCVYSVSGTLGNVEHGNQCQMKLMYEHNLQRTACNMTYGSFGGVKGRDLICIQSMDGMLMVFEQESYAFGRFLPGFLLPGPLAYSSRTDSFLTVSSCQQVESYKYQVLAFATDADKRQETEQQKLGSGKRLVVDWTLNIGEQALDICIVSFNQSASSVFVLGERNFFCLKDNGQIRFMKKLDWSPSCFLPYCSVSEGTINTLIGNHNNMLHIYQDVTLKWATQLPHIPVAVRVGCLHDLKGVIVTLSDDGHLQCSYLGTDPSLFQAPNVQSRELNYDELDVEMKELQKIIKDVNKSQGVWPMTEREDDLNVSVVVSPNFDSVSQATDVEVGTDLVPSVTVKVTLQNRVILQKAKLSVYVQPPLELTCDQFTFEFMTPDLTRTVSFSVYLKRSYTPSELEGNAVVSYSRPTDRNPDGIPRVIQCKFRLPLKLICLPGQPSKTASHKITIDTNKSPVSLLSLFPGFASQSDDDQVNVMGFHFLGGARITVLASKTSQRYRIQSEQFEDLWLITNELILRLQEYFEKQGVKDFACSFSGSIPLQEYFELIDHHFELRINGEKLEELLSERAVQFRAIQRRLLARFKDKTPAPLQHLDTLLDGTYKQVIALADAVEENQGNLFQSFTRLKSATHLVILLIALWQKLSADQVAILEAAFLPLQEDTQELGWEETVDAAISHLLKTCLSKSSKEQALNLNSQLNIPKDTSQLKKHITLLCDRLSKGGRLCLSTDAAAPQTMVMPGGCTTIPESDLEERSVEQDSTELFTNHRHLTAETPRPEVSPLQGVSE
partner: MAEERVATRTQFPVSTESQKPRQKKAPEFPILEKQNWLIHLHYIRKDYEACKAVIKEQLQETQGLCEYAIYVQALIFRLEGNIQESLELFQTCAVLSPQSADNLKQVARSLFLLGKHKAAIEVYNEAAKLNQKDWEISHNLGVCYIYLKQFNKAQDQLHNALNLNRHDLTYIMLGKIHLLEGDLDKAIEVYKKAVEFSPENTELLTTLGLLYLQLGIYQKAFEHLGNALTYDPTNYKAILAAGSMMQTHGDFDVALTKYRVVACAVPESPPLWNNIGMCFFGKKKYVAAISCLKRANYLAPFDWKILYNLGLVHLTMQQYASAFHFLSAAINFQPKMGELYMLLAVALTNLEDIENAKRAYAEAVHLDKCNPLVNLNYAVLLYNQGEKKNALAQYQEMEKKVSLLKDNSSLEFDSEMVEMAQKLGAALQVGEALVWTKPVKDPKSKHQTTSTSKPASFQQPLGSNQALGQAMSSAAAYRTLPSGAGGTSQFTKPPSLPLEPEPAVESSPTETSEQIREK

Variants of: B1
Conditions: with bbs4_human BBS4, Q96RK4

effect of a mutation on the interaction	Variant
with no effect	L481A
with no effect	L481K
with no effect	L481E
with no effect	L457E
with no effect	L457K
with no effect	L457A
with no effect	K456A
with no effect	K456E
with no effect	V461E
with no effect	V461A
with no effect	V461K
with no effect	Q471A
with no effect	Q471K
with no effect	Q471E
with no effect	D470K
with no effect	D470E
with no effect	D470A
with no effect	E466K
with no effect	E466A
with no effect	L467E
with no effect	L467K
with no effect	L467A
with no effect	Q453A

effect of a mutation on the interaction	Variant
with no effect	Q453E
with no effect	Q453K
with no effect	K454A
with no effect	K454E
with no effect	A455K
with no effect	A455E
with no effect	M477E
with no effect	M477A
with no effect	M477K
with no effect	T468K
with no effect	T468A
with no effect	T468E
disrupting interaction strength	L452S
with no effect	L452A
with no effect	L452K
with no effect	L452E
disrupting interaction strength	P463T
with no effect	P463K
with no effect	P463E
with no effect	P463A
with no effect	T473K
with no effect	T473E
with no effect	T473A

effect of a mutation on the interaction	Variant
with no effect	F476K
with no effect	F476A
with no effect	F476E
with no effect	Q462A
with no effect	Q462K
with no effect	Q462E
disrupting interaction strength	Q462T
with no effect	T478E
with no effect	T478A
with no effect	T478K
with no effect	D480A
with no effect	D480K
with no effect	D480E
with no effect	F474A
with no effect	F474E
with no effect	F474K
with no effect	C469A
with no effect	C469E
with no effect	C469K
with no effect	P479K
with no effect	P479A
with no effect	P479E
with no effect	P464A

effect of a mutation on the interaction	Variant
with no effect	P464K
with no effect	P464E
disrupting interaction strength	L465E
with no effect	L465A
disrupting interaction strength	L465K
with no effect	Y460K
with no effect	Y460A
with no effect	Y460E
with no effect	S458E
with no effect	S458A
with no effect	S458K
with no effect	E475K
with no effect	E475A
with no effect	V459K
disrupting interaction strength	V459A
with no effect	V459E
with no effect	I451E
with no effect	I451A
with no effect	I451K
with no effect	F472A
with no effect	F472E
with no effect	F472K
